Test results reported in patent US20260250651, “CAS12 PROTEINS AND USES THEREOF” (GUANGZHOU REFORGENE MEDICINE CO., LTD., published 2026).
Positions count from the first letter of the chain named.

T1: Cas12i (wild-type, from CN111757889B)
T1 chain: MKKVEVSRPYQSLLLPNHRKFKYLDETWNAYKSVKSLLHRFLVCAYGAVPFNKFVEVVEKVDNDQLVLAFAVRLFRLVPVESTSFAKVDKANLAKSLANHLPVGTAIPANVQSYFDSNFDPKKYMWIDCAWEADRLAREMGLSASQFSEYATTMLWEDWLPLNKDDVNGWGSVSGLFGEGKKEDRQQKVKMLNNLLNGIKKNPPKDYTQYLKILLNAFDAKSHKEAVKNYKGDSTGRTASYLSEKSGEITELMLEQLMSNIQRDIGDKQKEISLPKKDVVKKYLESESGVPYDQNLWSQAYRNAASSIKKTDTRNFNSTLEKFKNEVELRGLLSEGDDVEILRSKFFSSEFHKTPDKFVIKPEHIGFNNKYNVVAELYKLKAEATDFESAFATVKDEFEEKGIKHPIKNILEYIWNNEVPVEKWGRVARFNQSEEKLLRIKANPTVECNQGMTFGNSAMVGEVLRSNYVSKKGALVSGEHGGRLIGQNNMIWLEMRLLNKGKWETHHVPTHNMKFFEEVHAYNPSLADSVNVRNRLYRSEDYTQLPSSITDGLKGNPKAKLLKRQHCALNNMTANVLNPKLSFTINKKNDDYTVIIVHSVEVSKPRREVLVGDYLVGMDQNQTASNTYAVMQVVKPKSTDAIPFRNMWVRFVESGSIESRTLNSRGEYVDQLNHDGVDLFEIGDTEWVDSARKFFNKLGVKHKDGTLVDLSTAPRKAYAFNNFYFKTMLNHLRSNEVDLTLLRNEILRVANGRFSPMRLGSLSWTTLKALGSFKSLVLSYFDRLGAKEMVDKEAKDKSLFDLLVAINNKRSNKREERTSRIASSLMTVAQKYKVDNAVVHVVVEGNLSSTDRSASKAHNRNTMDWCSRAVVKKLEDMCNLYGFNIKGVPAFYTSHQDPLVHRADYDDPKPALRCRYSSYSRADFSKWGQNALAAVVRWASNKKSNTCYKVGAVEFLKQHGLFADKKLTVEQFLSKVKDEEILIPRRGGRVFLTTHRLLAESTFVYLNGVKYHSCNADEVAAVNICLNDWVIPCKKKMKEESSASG

T2: Cas12i-30 (N295R,N260R)
T2 chain: T1 chain with N260R, N295R

B1: gRNA-TTR ; TTR target (ssRNA ; dsDNA)
RNA: AGAGAAUGUGUGCAUAGUCACACCAGUAAGAUUUGGUGUCUAU
DNA 1: CAGTAAGATTTGGTGTCTAT
DNA 2: ATAGACACCAAATCTTACTG
B2: gRNA-HBG ; HBG target (ssRNA ; dsDNA)
RNA: AGAGAAUGUGUGCAUAGUCACACACAAGGCAAACUUGACCAAU
DNA 1: ACAAGGCAAACTTGACCAAT
DNA 2: ATTGGTCAAGTTTGCCTTGT
B3: gRNA-HBB ; HBB target (ssRNA ; dsDNA)
RNA: AGAGAAUGUGUGCAUAGUCACACUAUGCAGAAAUAUUGCUAUUGCCU
DNA 1: TATGCAGAAATATTGCTATTGCCT
DNA 2: AGGCAATAGCAATATTTCTGCATA

Assays:
[1] = target: T1, Cas12i (wild-type, from CN111757889B); test: cell_activity; 293T indels, reference; PAM not stated
Method: (§1) Plating: The 293T cell line was plated when the confluence reached 70-80%, and the number of cells seeded in a 24-well plate was 5*10\hat{ }5 cells/well.
(§2) Transfection: After 12-14 hours of plating, transfection was performed. 100 μl of Opti-MEM, 1.5 μl of PEI (Yisheng Bio, Polyethylenimine Linear (PEI) MW25000), 250 ng of the mutant clone plasmid from Example 2, and 250 ng of gRNA plasmid for targeting endogenous genes were added to each well of a 24-well plate. The mixture was incubated at room temperature for 20 minutes and then added to 293T cells for transfection. After transfection overnight, the medium was replaced with fresh medium and cultured for the next period.
(§3) DNA extraction, PCR amplification, and Sanger sequencing: After culturing for 72 hours, cells were washed with PBS, and then 100 μl of cell lysis buffer (Viagen, DirectPCR® Lysis Reagent (Cell)) was added for lysis to obtain a lysate containing genomic DNA. The genomic DNA was amplified in the region near the target sequence, and the PCR product was sent to a sequencing company for Sanger sequencing.

Cas12i-30 [2] = target: T2, Cas12i-30; test: cell_activity; 293T indels; editing >10%
Method: as §1, §2, §3

Cas12i-30 [3] = target: T2, Cas12i-30; test: cell_activity; 293T indels, reference; editing >10%
Method: as §1, §2, §3

| Binder | indel editing activity [1] | relative indel editing efficiency (Cas12i-30 [2]) | relative indel editing efficiency (Cas12i-30 [3]) |
| --- | --- | --- | --- |
| B1 | 1 fold of wild type | 1.89 fold of wild type | – |
| B2 | 1 fold of wild type | – | – |
| B3 | – | – | 1 fold of Cas12i-30 |
